The values below come from paper PMC9120461, “Structural insights into the mechanism of pancreatic KATP channel regulation by nucleotides” (Nature Communications, 2022).

Data set [1] has as its target T1, SUR1 from Mesocricetus auratus (maSUR1), as the SUR1 part of H175K_(cryo-EM) (Mesocricetus auratus, UniProt A0A1U7R319 1-1582).
T1 construct: SUR1 from Mesocricetus auratus (maSUR1); In the assay it stood on one chain with Kir6.2 H175K: its C terminus is joined to the 41-residue linker and the Prescission site; also called SUR1 subunit; source: purified in digitonin (Streptactin 4FF resin, Superose 6 increase)
Put plainly: cryo-EM structure; purified H175K_(cryo-EM) fusion protein (13.5 uM octamer) in TBS (20 mM Tris-HCl pH 7.5, 150 mM NaCl) with 0.1% digitonin, with 5 mM MgCl2, 0.5 mM ADP, 0.5 mM NN414 and 10 uM PI(4,5)P2diC8; closed and pre-open states resolved in the same sample. As to conditions: both partners purified.

Data set [2] concerns the molecule itself. Described as above.

T1 sequence (A0A1U7R319 entry or part of it H175K H175K): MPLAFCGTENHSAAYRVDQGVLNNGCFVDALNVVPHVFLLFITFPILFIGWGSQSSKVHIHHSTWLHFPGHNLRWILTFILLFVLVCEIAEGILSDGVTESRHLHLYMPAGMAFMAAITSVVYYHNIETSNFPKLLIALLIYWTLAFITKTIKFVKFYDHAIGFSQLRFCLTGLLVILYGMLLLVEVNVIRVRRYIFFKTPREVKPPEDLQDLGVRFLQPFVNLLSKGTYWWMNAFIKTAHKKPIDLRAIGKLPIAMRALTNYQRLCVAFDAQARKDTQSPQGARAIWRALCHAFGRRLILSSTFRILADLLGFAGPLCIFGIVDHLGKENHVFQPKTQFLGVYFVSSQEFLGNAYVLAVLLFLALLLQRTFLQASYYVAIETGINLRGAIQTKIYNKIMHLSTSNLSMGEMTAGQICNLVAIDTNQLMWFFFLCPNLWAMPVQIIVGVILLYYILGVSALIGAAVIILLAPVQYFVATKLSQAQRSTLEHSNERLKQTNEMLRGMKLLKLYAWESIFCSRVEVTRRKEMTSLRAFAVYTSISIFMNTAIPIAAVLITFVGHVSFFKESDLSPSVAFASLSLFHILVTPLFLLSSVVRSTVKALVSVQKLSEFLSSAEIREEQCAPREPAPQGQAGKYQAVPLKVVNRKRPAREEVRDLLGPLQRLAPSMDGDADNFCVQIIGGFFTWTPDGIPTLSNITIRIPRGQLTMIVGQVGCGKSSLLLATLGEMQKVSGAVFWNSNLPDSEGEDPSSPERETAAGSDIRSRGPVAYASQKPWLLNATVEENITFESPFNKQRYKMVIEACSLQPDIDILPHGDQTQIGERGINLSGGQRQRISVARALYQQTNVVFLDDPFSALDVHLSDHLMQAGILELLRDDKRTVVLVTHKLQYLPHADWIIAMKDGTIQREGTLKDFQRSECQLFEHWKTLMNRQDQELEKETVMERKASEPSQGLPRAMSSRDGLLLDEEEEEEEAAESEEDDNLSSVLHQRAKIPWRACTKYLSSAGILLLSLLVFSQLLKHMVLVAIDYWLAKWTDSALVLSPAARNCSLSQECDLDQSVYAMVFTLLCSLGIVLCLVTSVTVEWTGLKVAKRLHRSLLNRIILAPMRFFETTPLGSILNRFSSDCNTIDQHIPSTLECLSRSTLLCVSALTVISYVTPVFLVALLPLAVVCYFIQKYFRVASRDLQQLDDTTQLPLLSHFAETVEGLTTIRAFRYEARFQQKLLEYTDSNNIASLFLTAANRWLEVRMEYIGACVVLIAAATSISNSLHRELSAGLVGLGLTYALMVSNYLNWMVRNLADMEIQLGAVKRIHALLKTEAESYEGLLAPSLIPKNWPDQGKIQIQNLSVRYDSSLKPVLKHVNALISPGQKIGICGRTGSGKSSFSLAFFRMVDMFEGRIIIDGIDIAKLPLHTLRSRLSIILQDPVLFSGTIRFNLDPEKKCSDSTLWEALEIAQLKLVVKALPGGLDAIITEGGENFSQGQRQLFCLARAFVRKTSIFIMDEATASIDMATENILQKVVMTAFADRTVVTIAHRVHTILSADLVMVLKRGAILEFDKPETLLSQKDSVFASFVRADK

B1: Kir6.2 from Mus musculus (mmKir6.2) H175K mutant, as the Kir6.2 part of H175K_(cryo-EM) (natural protein, UniProt Q61743 2-390, looked up)
chain: LSRKGIIPEEYVLTRLAEDPAEPRYRTRERRARFVSKKGNCNVAHKNIREQGRFLQDVFTTLVDLKWPHTLLIFTMSFLCSWLLFAMVWWLIAFAHGDLAPGEGTNVPCVTSIHSFSSAFLFSIEVQVTIGFGGRMVTEECPLAILILIVQNIVGLMINAIMLGCIFMKTAQAKRRAETLIFSKHAVITLRHGRLCFMLRVGDLRKSMIISATIHMQVVRKTTSPEGEVVPLHQVDIPMENGVGGNGIFLVAPLIIYHVIDSNSPLYDLAPSDLHHHQDLEIIVILEGVVETTGITTQARTSYLADEILWGQRFVPIVAEEDGRYSVDYSKFGNTIKVPTPLCTARQLDEDRSLLDALTLASSRGPLRKRSVAVAKAKPKFSISPDSLS
notes: Kir6.2 from Mus musculus (mmKir6.2), first Met removed, H175K mutant; In the assay it stood on one chain with SUR1: its N terminus is joined to the Prescission site and the 41-residue linker after SUR1; source: purified in digitonin (Streptactin 4FF resin, Superose 6 increase)
For B1, the binding result in data set [1] and in data set [2] was “binds” in each case.
